Results as given in patent US20260167721A1 (ABLEXIS, published 2026).

What was measured:
[1] = target: T1, human CD3 (TCR/CD3 complex on the cell surface) (human, UniProt P07766 23-207; P04234 22-171; P09693 23-182); assay: flow cytometry, Pan-T cells, 1 ug/mL
T1 construct: whole, on cells; Native CD3 on human Pan-T cells or Jurkat wild-type cells; also called CD3 on Pan-T cells; CD3 on Jurkat WT cells

[2] = target: T1, human CD3 (TCR/CD3 complex on the cell …); assay: flow cytometry, Pan-T cells, 10 ug/mL
[3] = target: T1, human CD3 (TCR/CD3 complex on the cell …); assay: flow cytometry, Jurkat WT cells, 1 ug/mL
[4] = target: T1, human CD3 (TCR/CD3 complex on the cell …); assay: flow cytometry, Jurkat WT cells, 10 ug/mL
[5] = target: T1, human CD3 (TCR/CD3 complex on the cell …); assay: flow cytometry, Jurkat WT gMFI over Jurkat KO gMFI, 1 ug/mL
[6] = target: T1, human CD3 (TCR/CD3 complex on the cell …); assay: flow cytometry, Jurkat WT gMFI over Jurkat KO gMFI, 10 ug/mL

T1 sequence (P07766 23-207, chain 1 of 3): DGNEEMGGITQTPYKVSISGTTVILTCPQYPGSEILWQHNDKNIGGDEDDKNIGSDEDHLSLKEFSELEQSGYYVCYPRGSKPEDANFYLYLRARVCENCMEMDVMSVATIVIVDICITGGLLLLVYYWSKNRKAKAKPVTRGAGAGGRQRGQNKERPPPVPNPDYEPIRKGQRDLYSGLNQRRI
T1 sequence (P04234 22-171, chain 2 of 3): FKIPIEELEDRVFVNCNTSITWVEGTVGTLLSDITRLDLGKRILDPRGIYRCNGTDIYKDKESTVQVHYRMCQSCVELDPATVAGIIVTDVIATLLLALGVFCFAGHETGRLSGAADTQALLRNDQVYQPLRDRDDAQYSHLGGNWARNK
T1 sequence (P09693 23-182, chain 3 of 3): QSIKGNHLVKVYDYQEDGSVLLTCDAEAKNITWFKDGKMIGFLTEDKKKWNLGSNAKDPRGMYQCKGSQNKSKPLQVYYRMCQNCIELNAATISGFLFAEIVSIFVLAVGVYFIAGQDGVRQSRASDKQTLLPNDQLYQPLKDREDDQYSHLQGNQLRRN

Row | Binder | % Positive [1] | gMFI [1] | % Positive [2] | gMFI [2] | gMFI [3] | gMFI [4] | Jurkat WT/KO (Fold) [5] | Jurkat WT/KO (Fold) [6]
1 | CD3 × CD33-BspAb81 (bispecific antibody) chain 1: QVQLQESGPGLVKPSQTLSLTCTVSGGSISSGGYYWSWIRQHPGKCLEWIGYIYYSGSTYYNPSLKSRVTISVDTSKDQFSLKLSSVTAADTAVYYCARERKTSLPFDIWGQGTMVTVSSGGGGSGGGGSGGGGSGGGGSNFMLTQPHSVSESPGKTVTISCTRSSGSIASNYVQWYQQRPGSSPTTVIYEDNQRPSGVPDRFSGSIDSSSNSASLTISGLKTEDEAYYYCQSFDSSNRVFGCGTKLTVLDKTHTCPPCPAPEFEGGPSVFLFPPKPKDTLMISRTPEVTCVVVDVSHEDPEVKFNWYVDGVEVHNAKTKPREEQYNSTYRVVSVLTVLHQDWLNGKEYKCKVSNKALPASIEKTISKAKGQPREPQVYTLPPCREEMTKNQVSLWCLVKGFYPSDIAVEWESNGQPENNYKTTPPVLDSDGSFFLYSKLTVDKSRWQQGNVFSCSVMHEALHNHYTQKSLSLSPGK chain 2: EVQLVQSGAEVKKPGSSVKVSCKASGYTITDSNIHWVRQAPGQSLEWIGYIYPYNGGTDYNQKFKNRATLTVDNPTNTAYMELSSLRSEDTAFYYCVNGNPWLAYWGQGTLVTVSSASTKGPSVFPLAPSSKSTSGGTAALGCLVKDYFPEPVTVSWNSGALTSGVHTFPAVLQSSGLYSLSSVVTVPSSSLGTQTYICNVNHKPSNTKVDKRVEPKSCDKTHTCPPCPAPEFEGGPSVFLFPPKPKDTLMISRTPEVTCVVVDVSHEDPEVKFNWYVDGVEVHNAKTKPREEQYNSTYRVVSVLTVLHQDWLNGKEYKCKVSNKALPASIEKTISKAKGQPREPQVCTLPPSREEMTKNQVSLSCAVKGFYPSDIAVEWESNGQPENNYKTTPPVLDSDGSFFLVSKLTVDKSRWQQGNVFSCSVMHEALHNRFTQKSLSLSPGK chain 3: DIQLTQSPSTLSASVGDRVTITCRASESLDNYGIRFLTWFQQKPGKAPKLLMYAASNQGSGVPSRFSGSGSGTEFTLTISSLQPDDFATYYCQQTKEVPWSFGQGTKVEVKRTVAAPSVFIFPPSDEQLKSGTASVVCLLNNFYPREAKVQWKVDNALQSGNSQESVTEQDSKDSTYSLSSTLTLSKADYEKHKVYACEVTHQGLSSPVTKSFNRGEC | 99.7% | 79900 gMFI | 99.8% | 369000 gMFI | 24100 gMFI | 55100 gMFI | 7.1 fold | 13.5 fold
2 | CD3 × CD33-BspAb84 (bispecific antibody, KiH heterodimer) scFv-Fc: EVQVAESGGGLVKPGGSLRLSCAASGFTFSRYSMNWVRQAPGKCLEWVSSISSSGSYTYYADSVKGRFTISRDNAKNSLYLQMNSLRAEDTAVYYCVRERGKGAGMDVWGQGTTVTVSSGGGGSGGGGSGGGGSGGGGSNFMLTQPHSVSESPGKTVTISCTRSSGSIASNYVQWYQQRPGSSPTTVIYEDNQRPSGVPDRFSGSIDSSSNSASLTISGLKTEDEADYYCQSYDSSNRVFGCGTKLTVLGGGGSDKTHTCPPCPAPEFEGGPSVFLFPPKPKDTLMISRTPEVTCVVVDVSHEDPEVKFNWYVDGVEVHNAKTKPREEQYNSTYRVVSVLTVLHQDWLNGKEYKCKVSNKALPASIEKTISKAKGQPREPQVYTLPPCREEMTKNQVSLWCLVKGFYPSDIAVEWESNGQPENNYKTTPPVLDSDGSFFLYSKLTVDKSRWQQGNVFSCSVMHEALHNHYTQKSLSLSPGK heavy: EVQLVQSGAEVKKPGSSVKVSCKASGYTITDSNIHWVRQAPGQSLEWIGYIYPYNGGTDYNQKFKNRATLTVDNPTNTAYMELSSLRSEDTAFYYCVNGNPWLAYWGQGTLVTVSSASTKGPSVFPLAPSSKSTSGGTAALGCLVKDYFPEPVTVSWNSGALTSGVHTFPAVLQSSGLYSLSSVVTVPSSSLGTQTYICNVNHKPSNTKVDKRVEPKSCDKTHTCPPCPAPEFEGGPSVFLFPPKPKDTLMISRTPEVTCVVVDVSHEDPEVKFNWYVDGVEVHNAKTKPREEQYNSTYRVVSVLTVLHQDWLNGKEYKCKVSNKALPASIEKTISKAKGQPREPQVCTLPPSREEMTKNQVSLSCAVKGFYPSDIAVEWESNGQPENNYKTTPPVLDSDGSFFLVSKLTVDKSRWQQGNVFSCSVMHEALHNRFTQKSLSLSPGK light: DIQLTQSPSTLSASVGDRVTITCRASESLDNYGIRFLTWFQQKPGKAPKLLMYAASNQGSGVPSRFSGSGSGTEFTLTISSLQPDDFATYYCQQTKEVPWSFGQGTKVEVKRTVAAPSVFIFPPSDEQLKSGTASVVCLLNNFYPREAKVQWKVDNALQSGNSQESVTEQDSKDSTYSLSSTLTLSKADYEKHKVYACEVTHQGLSSPVTKSFNRGEC | 99.9% | 173000 gMFI | 99.9% | 362000 gMFI | 35200 gMFI | 51000 gMFI | 10.8 fold | 13.9 fold
3 | CD3 × CD33-BspAb83 (bispecific antibody) chain 1: EVQLVESGGGLVKPGGSLRLSCVASGFTFSRYSMNWVRQAPGKCLEWVSSISSSSRYTYYADSLKGRFIMSRDNAKNSLFLQMNSLRAEDTAVYYCARNLYNALDYWGQGTLVTVSSGGGGSGGGGSGGGGSGGGGSFMLTQPHSVSESPGKTVTISCTRSSGSIASNYVQWYQQRPGSSPTTVIYEDNQRPSGVPDRFSGSIDSSSNSASLTISGLQTEDEADYYCQSYDSSNRVFGCGTKLTVLDKTHTCPPCPAPEFEGGPSVFLFPPKPKDTLMISRTPEVTCVVVDVSHEDPEVKFNWYVDGVEVHNAKTKPREEQYNSTYRVVSVLTVLHQDWLNGKEYKCKVSNKALPASIEKTISKAKGQPREPQVYTLPPCREEMTKNQVSLWCLVKGFYPSDIAVEWESNGQPENNYKTTPPVLDSDGSFFLYSKLTVDKSRWQQGNVFSCSVMHEALHNHYTQKSLSLSPGK chain 2: EVQLVQSGAEVKKPGSSVKVSCKASGYTITDSNIHWVRQAPGQSLEWIGYIYPYNGGTDYNQKFKNRATLTVDNPTNTAYMELSSLRSEDTAFYYCVNGNPWLAYWGQGTLVTVSSASTKGPSVFPLAPSSKSTSGGTAALGCLVKDYFPEPVTVSWNSGALTSGVHTFPAVLQSSGLYSLSSVVTVPSSSLGTQTYICNVNHKPSNTKVDKRVEPKSCDKTHTCPPCPAPEFEGGPSVFLFPPKPKDTLMISRTPEVTCVVVDVSHEDPEVKFNWYVDGVEVHNAKTKPREEQYNSTYRVVSVLTVLHQDWLNGKEYKCKVSNKALPASIEKTISKAKGQPREPQVCTLPPSREEMTKNQVSLSCAVKGFYPSDIAVEWESNGQPENNYKTTPPVLDSDGSFFLVSKLTVDKSRWQQGNVFSCSVMHEALHNRFTQKSLSLSPGK chain 3: DIQLTQSPSTLSASVGDRVTITCRASESLDNYGIRFLTWFQQKPGKAPKLLMYAASNQGSGVPSRFSGSGSGTEFTLTISSLQPDDFATYYCQQTKEVPWSFGQGTKVEVKRTVAAPSVFIFPPSDEQLKSGTASVVCLLNNFYPREAKVQWKVDNALQSGNSQESVTEQDSKDSTYSLSSTLTLSKADYEKHKVYACEVTHQGLSSPVTKSFNRGEC | 99.8% | 566000 gMFI | 99.8% | 598000 gMFI | 67700 gMFI | 69100 gMFI | 14 fold | 14.3 fold
4 | CD3 × CD33-BspAb82 (bispecific antibody) chain 1: EVQLVESGGGLVKPGGSLRLSCAASGLTFSTYSMNWVRQAPGKCLEWVSSISSSGSYVYYADSVKGRFTMSRDNAKNSLYLQMNSLRAEDTAVYYCARERRELLFDYWGQGTLVTVSSGGGGSGGGGSGGGGSGGGGSNFMLTQPHSVSESPGKTVTISCTRSSGSIASNYVQWYQQRPGSSPTSVIYEDNQRPSGVPDRFSGSIDSSSNSASLTISGLKTEDEADYYCQSYDRSNRVFGCGTKLTVLDKTHTCPPCPAPEFEGGPSVFLFPPKPKDTLMISRTPEVTCVVVDVSHEDPEVKFNWYVDGVEVHNAKTKPREEQYNSTYRVVSVLTVLHQDWLNGKEYKCKVSNKALPASIEKTISKAKGQPREPQVYTLPPCREEMTKNQVSLWCLVKGFYPSDIAVEWESNGQPENNYKTTPPVLDSDGSFFLYSKLTVDKSRWQQGNVFSCSVMHEALHNHYTQKSLSLSPGK chain 2: EVQLVQSGAEVKKPGSSVKVSCKASGYTITDSNIHWVRQAPGQSLEWIGYIYPYNGGTDYNQKFKNRATLTVDNPTNTAYMELSSLRSEDTAFYYCVNGNPWLAYWGQGTLVTVSSASTKGPSVFPLAPSSKSTSGGTAALGCLVKDYFPEPVTVSWNSGALTSGVHTFPAVLQSSGLYSLSSVVTVPSSSLGTQTYICNVNHKPSNTKVDKRVEPKSCDKTHTCPPCPAPEFEGGPSVFLFPPKPKDTLMISRTPEVTCVVVDVSHEDPEVKFNWYVDGVEVHNAKTKPREEQYNSTYRVVSVLTVLHQDWLNGKEYKCKVSNKALPASIEKTISKAKGQPREPQVCTLPPSREEMTKNQVSLSCAVKGFYPSDIAVEWESNGQPENNYKTTPPVLDSDGSFFLVSKLTVDKSRWQQGNVFSCSVMHEALHNRFTQKSLSLSPGK chain 3: DIQLTQSPSTLSASVGDRVTITCRASESLDNYGIRFLTWFQQKPGKAPKLLMYAASNQGSGVPSRFSGSGSGTEFTLTISSLQPDDFATYYCQQTKEVPWSFGQGTKVEVKRTVAAPSVFIFPPSDEQLKSGTASVVCLLNNFYPREAKVQWKVDNALQSGNSQESVTEQDSKDSTYSLSSTLTLSKADYEKHKVYACEVTHQGLSSPVTKSFNRGEC | 99.5% | 319000 gMFI | 99.9% | 462000 gMFI | 54500 gMFI | 58600 gMFI | 12.9 fold | 14.4 fold
